Measurements: patent publication US7192728B2, “Screening assays for agents that alter inhibitor of apoptosis (IAP) protein regulation of caspase activity” (The Burnham Institute, priority 1997, dated 2007)

Columns and labels:
caspase-3 = biological target: T1, caspase-3 (Homo sapiens, UniProt P42574); experiment: Inhibition of purified recombinant caspase-3, DEVD substrate hydrolysis and progress curves; assay type: biochemical
T1 construct: to produce the 17–20 kDa mature, fully processed large subunit of the active caspase-3 enzyme; a smaller, fully processed, subunit of about 11 kDa; His6; made in house; host or cells: E. coli BL21(DE3)pLysS
T1 sequence (P42574 29-175 limits assumed): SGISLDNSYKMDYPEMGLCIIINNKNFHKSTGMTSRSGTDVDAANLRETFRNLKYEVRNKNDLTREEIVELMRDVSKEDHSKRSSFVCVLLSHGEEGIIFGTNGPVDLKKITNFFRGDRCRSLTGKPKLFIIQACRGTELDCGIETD
T1 sequence (P42574 176-277 limits assumed): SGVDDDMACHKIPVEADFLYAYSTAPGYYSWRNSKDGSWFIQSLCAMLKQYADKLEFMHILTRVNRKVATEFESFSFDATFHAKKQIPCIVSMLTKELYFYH
Protocol: (§1) Purified recombinant caspase-1, caspase-3, caspase-6, caspase-7 or caspase-8 were incubated with DEVD-pNA, either alone or with a 10-fold to 50-fold molar excess of GST-XIAP ([…]) and substrate hydrolysis was measured. Purified active caspase concentrations ranged from 0.1 nM to 10 nM. XIAP concentration ranged from 0.1 nM to 500 nM. Assays were performed in caspase buffer (50 mM Tris, pH 7.4, 100 mM NaCl, 10% sucrose, 5–10 mM DTT, 1 mM EDTA and 0.1% CHAPS).
(§2) Equilibria were determined from progress curves when substrate hydrolysis reached a steady-state; slopes were calculated by curve fit analysis using the cricket graph program. Experiments were performed using purified recombinant caspase-3, caspase-6, or caspase-7. DEVD-AFC hydrolysis was measured using 0.1 nM caspase and a range of concentrations (0.2 to 12 μM) of recombinant XIAP (rXIAP). […] Average ratio velocities (vi/vo, where “vi” indicates presence of GST-XIAP and “vo” indicates absence of GST-XIAP) were determined.
Caspase activity was determined essentially as described in Example II, using the benzylyoxycarbonyl-DEVD-AFC (SEQ ID NO: 2) substrate and was assayed at 37° C. using the Perkin-Elmer LS50B fluorometric plate reader in the kinetic mode with excitation and emission wavelengths of 400 nm and 505 nm, respectively. […] Reactions were performed in caspase buffer (50 mM Hepes, 100 mM NaCl, 1 mM EDTA, 0.1% CHAPS, 10% sucrose, 5 mM DTT). The inhibition constant, Ki, was calculated as described (Zhou et al., supra, 1997). Immunoblot analysis was performed as described in Example I.B.3.

caspase-6 [1] = biological target: T2, caspase-6 (Homo sapiens, UniProt P55212); experiment: Inhibition of purified recombinant caspase-6, DEVD substrate hydrolysis; assay type: biochemical
T2 construct: Purified active caspase concentrations ranged from 0.1 nM to 10 nM; His6; made in house; host or cells: E. coli BL21(DE3)pLysS
T2 sequence (P55212 24-179 limits assumed): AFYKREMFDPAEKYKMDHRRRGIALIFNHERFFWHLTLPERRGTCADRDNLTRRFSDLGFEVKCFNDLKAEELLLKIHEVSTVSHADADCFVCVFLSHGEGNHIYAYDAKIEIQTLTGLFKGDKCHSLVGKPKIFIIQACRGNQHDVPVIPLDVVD
T2 sequence (P55212 194-293 limits assumed): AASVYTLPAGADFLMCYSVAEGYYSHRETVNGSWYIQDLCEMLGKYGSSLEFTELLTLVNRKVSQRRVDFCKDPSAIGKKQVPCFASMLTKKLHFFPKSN
Protocol: as §1, §2

caspase-1 = biological target: T3, caspase-1 (Homo sapiens, UniProt P29466); experiment: Inhibition of purified recombinant caspase-1, substrate hydrolysis; assay type: biochemical; settings: 50-fold molar excess
T3 construct: Purified active caspase concentrations ranged from 0.1 nM to 10 nM; made in house
T3 sequence (P29466 120-297 limits assumed): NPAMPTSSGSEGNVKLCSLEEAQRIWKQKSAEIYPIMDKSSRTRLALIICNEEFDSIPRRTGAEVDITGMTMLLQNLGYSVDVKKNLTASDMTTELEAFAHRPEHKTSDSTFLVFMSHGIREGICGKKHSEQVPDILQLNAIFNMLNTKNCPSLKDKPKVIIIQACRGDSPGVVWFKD
T3 sequence (P29466 317-404 limits assumed): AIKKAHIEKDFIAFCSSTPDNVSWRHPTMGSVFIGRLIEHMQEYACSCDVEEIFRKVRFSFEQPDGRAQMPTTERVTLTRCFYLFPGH
Protocol: as §1

293T cells = experiment: Bax-induced apoptosis and caspase activation in transfected 293T cells; assay type: cell-based, human
Protocol: N-benzyloxycarbonyl-Val-Ala-Asp fluoromethylketone (zVAD-fmk; 50 μM) (Bachem Calif.; Torrance, Calif.) was added immediately after transfection of the Bax plasmid. Transfection efficiency was uniformly 80–90%, as determined by X-Gal staining following cotransfection with pCMV-βGal.
Cells were maintained in culture for 24 hr, then floating and attached cells were harvested and an aliquot was removed and the percent of dead cells was determined by either trypan blue or propidium iodide (PI) dye exclusion assay. A second aliquot was used to assess the percentage of apoptotic cells with subdiploid DNA content by FACS analysis of PI stained, ethanol fixed cells. The remaining cell pellets were lysed in 10 mM HEPES (pH 7.5), 142 mM KCl, 1 mM EGTA, 1 mM DTT, 0.2% NP-40, 0.1 mM PMSF and used for immunoblot analysis or for protease assays.

293 cells = experiment: Fas-induced apoptosis in transfected 293 cells; assay type: cell-based, human; settings: co-transfection of Fas and myc-XIAP; 36 hrs
Protocol: For determination of apoptotic activity in FIG. 2B, 293 cells in 60 mm dishes were transiently transfected with 6 μg of pcDNA-myc-tag control or pcDNA-myc-XIAP plasmids, and either 2 ug of pCMV5 or pCMV5-Fas plasmid DNA. All transfections included 0.5 ug of pEGFP as a marker and were normalized for total DNA content. The percentage of GFP positive cells with apoptotic morphology and nuclear changes consistent with apoptosis were enumerated by DAPI-staining (mean+SD; n=3) at 36 hrs. Alternatively, cell lysates were prepared, and immunoprecipitates were collected using anti-myc monoclonal antibody with protein-G-Sepharose, followed by SDS-PAGE immunoblot assay using anti-caspase-3 antiserum (Krajewska et al., supra 1997) to reveal the XIAP-associated p24 isoform of partially processed caspase-3. Lanes correspond to cells transfected with: (1) control plasmid; (2) myc-XIAP; (3) Fas plus myc-control; and (4) Fas plus myc-XIAP.
Apoptotic assays were performed as follows. 293 cells were transfected as described above, except that 0.5 μg pEGFP plasmid DNA was included.

caspase-6 [2] = biological target: T2, caspase-6; experiment: GST pull-down binding to caspase-6; settings: glutathione-Sepharose beads, immunoblot
[3] = DEVD-AFC hydrolysis with/without GST-XIAP

**Q.** For “XIAP: X chromosome linked inhibitor of apoptosis protein (Genbank U32974), used mostly as recombinant GST fusion or expressed from plasmid”, which “inhibition of processing of DEVD-pNA by caspase-3” value (caspase-3; 10-fold molar excess) is on record?
**A.** greater than 95%

**Q.** What about the “average ratio velocity (vi/vo), caspase-3” value (caspase-3; [3]) of the same substance?
**A.** less than 0.2

**Q.** What about the Ki (caspase-3; progress curve analysis, DEVD-AFC 0.1 mM, 0.1 nM caspase, read-out: inhibition constant (Ki) for caspase-3) of the same substance?
**A.** ~0.7 nM

**Q.** What about the “interference with substrate cleavage by caspase-6” value (caspase-6 [1]; 50-fold molar excess) of the same substance?
**A.** did not interfere

**Q.** And the “average ratio velocity (vi/vo), caspase-6” value (caspase-6 [1]; [3])?
**A.** about 1.0

**Q.** What about the “interference with substrate cleavage by caspase-1” value (caspase-1) of the same substance?
**A.** did not interfere

**Q.** What about the “apoptotic cells (PI staining) in Bax expressing cells” value (293T cells; 24 hr, Bax alone about 25%, zVAD-fmk 50 μM) of the same substance?
**A.** less than 10%

**Q.** And the “Bax-induced generation of caspase activity and pro-caspase-3 processing (in words)” value (293T cells; DEVD-AFC hydrolysis and immunoblot of cell extracts)?
**A.** markedly inhibited

**Q.** And the “apoptotic cells (PI staining)” value (293T cells; XIAP expressed without Bax, control plasmid about 2%)?
**A.** about 5%

**Q.** What about the “Fas-induced apoptosis (in words)” value (293 cells) of the same substance?
**A.** markedly suppressed

**Q.** What about the “binding of caspase-6 (in words)” value (caspase-6 [2]) of the same substance?
**A.** not caspase-6
